In patent publication US20190144503A1 (REGENTS OF THE UNIVERSITY OF MINNESOTA, published 2019):
Where two headings read alike, the source gives them in different places. One block for each binder: values may come before it.

Assays:
[1] = target: T1, recombinant His-tagged human carbonic anhydrase 9 (human, UniProt Q16790 38-414); experiment: titration of the purified clone, Relative Binding to CA9 against concentration (x axis printed 'AAZ Concentration (nM)'); assay format not described
[2] = target: T1, recombinant His-tagged human carbonic …; experiment: binding of the purified clone to CA9 (FIG. 14B); method not stated
[3] = target: T1, recombinant His-tagged human carbonic …; experiment: titration of the purified clone, Relative Binding to CA9 against concentration (x axis printed 'AAZ Concentration (nM)'); assay format not described; remark: listed apart in the source

- Kd [1]: 60 nM
B1: Fn-AAZ clone 0.3.10 (fibronectin type III domain of SEQ ID NO: 3 conjugated to acetazolamide) (designed binder)
chain: MASSSDSPRNLEVTNATPNSLTISWDSYLDCAYYYRITYGETGGNSPSQEFTVPGYTNSVTISGLKPGQDYTITVYAVASSNDVSNPISINYRTEIDKPSQGS
modifications: acetazolamide (AAZ) conjugated through a maleimide-PEG linker to the single cysteine; PEG length not stated for this clone
notes: Expressed and purified clone, conjugated with maleimide-PEG-AAZ; also called first Fn-AAZ clone; first Fn-AAZ conjugate

- Kd [1]: 600 nM
B2: Clone 0.3.10 fibronectin type III domain (SEQ ID NO: 3) not conjugated to AAZ (designed binder)
chain: B1 chain

- fold higher affinity than the Fn not conjugated to AAZ [2]: ~6 fold
- Kd [3]: ~30 nM
B3: Fn-AAZ clone 0.3.9 (fibronectin type III domain of SEQ ID NO: 4 conjugated to acetazolamide) (designed binder)
chain: MASSSDSPRNLEVTNATPNSLTISWDDSYCVIYYRITYGETGGNSPSQEFTVPGYTNSVTISGLKPGQDYTITVYAVTDYSKLDPSNPISINYRTEIDKPSQGS
modifications: acetazolamide (AAZ) conjugated through a maleimide-PEG linker to the single cysteine; PEG length not stated for this clone
notes: Expressed and purified clone, conjugated with maleimide-PEG-AAZ; also called second Fn-AAZ clone; second Fn-AAZ conjugate

- Kd [3]: 170 nM
B4: Clone 0.3.9 fibronectin type III domain (SEQ ID NO: 4) not conjugated to AAZ (designed binder)
chain: B3 chain
